{"source": "patent US20220251595A1", "about": "“ENGINEERED ATRLP23 PATTERN RECOGNITION RECEPTORS AND METHODS OF USE” (priority 2019, published 2022)", "tested_on": "corn protoplasts", "experiment": "Calcium burst in transiently transfected corn protoplasts, R-GECO1.2 fluorescence reporter", "type": "cell-based, Zea mays", "conditions": "1 μM PpNLP20; for Ca^2+ increase in response to PpNLP20 treatment (R-GECO1.2 fluorescence): transient expression in corn protoplasts", "description": "Following ligand (also known as elicitor) binding, PRRs are activated and induce a transient increase of cytosolic Ca^2+ concentration as part of a PTI response. […] In a high-throughput method, the kinetics of PRR-dependent transient variation of cytosolic Ca^2+ concentration can be measured with a fluorimeter or luminometer and in microplate formats of 96 or 384 wells.\nFluorescence was monitored using a fluorimeter equipped with a 100 Hz xenon flash lamp with excitation at 556 nm and emission measured at 585 nm for 100 ms, every 22.6 seconds for 42 minutes.\nAll of the AtRLP23 constructs have an operably linked 2×35S+Ω promoter construct (SEQ ID NO: 72) and an operably linked rbcS terminator (SEQ ID NO: 73)\nFluorescence was monitored using a fluorimeter equipped with a 100 Hz xenon flash lamp with excitation at 556 nm and emission measured at 585 nm for 30 ms, every 20.2 seconds for 40 minutes. For each fluorescence measurement, the transient change in R-GECO1.2 fluorescence (ΔF) are calculated from background corrected intensity values as (F-Fo), where F represents the average fluorescence intensity of the a batch of protoplasts treated with elicitor, and Fo represents the average fluorescence intensity of the same batch of protoplasts treated with a control solution that lacks the elicitor but is otherwise identical or essentially identical in composition to the solution comprising the elicitor."}
{"molecule": "AtRLP23-AtBAK1-3×FLAG: AtRLP23 apoplastic and eJM domains, AtBAK1 TM and cytoplasmic domains, 3×FLAG; SEQ ID NO: 25, 26 (protein, Fusion protein) MSKALLHLHFLSLFLLCCVCHSSIFTLNFHFTGIVACRPHQIQAFTKFTNEFDTRGCNNSDTFNGVWCDNSTGAVAVLQLRKCLSGTLKSNSSLFGFHQLRYVDLQNNNLTSSSLPSGFGNLKRLEGLFLSSNGFLGQVPSSFSNLTMLAQLDLSYNKLTGSFPLVRGLRKLIVLDLSYNHFSGTLNPNSSLFELHQLRYLNLAFNNFSSSLPSKFGNLHRLENLILSSNGFSGQVPSTISNLTRLTKLYLDQNKLTSSFPLVQNLTNLYELDLSYNKFFGVIPSSLLTLPFLAHLALRENNLAGSVEVSNSSTSSRLEIMYLGSNHFEGQILEPISKLINLKHLDLSFLNTSYPIDLKLFSSLKSLRSLDLSGNSISSASLSSDSYIPLTLEMLTLRHCDINEFPNILKTLKELVYIDISNNRMKGKIPEWLWSLPLLQSVTLGNNYFTGFQGSAEILVNSSVLLLYLDSNNFEGALPDLPLSIKGFGVASNSFTSEIPLSICNRSSLAAIDLSYNNFTGPIPPCLRNLELVYLRNNNLEGSIPDALCDGASLRTLDVSHNRLTGKLPRSFVNCSSLKFLSVINNRIEDTFPFWLKALPNLQVLTLRSNRFYGPISPPHQGPLGFPELRIFEISDNKFTGSLPPNYFVNWKASSRTMNQDGGLYMVYEEKLFDEGGYGYTDALDLQYKGLHMEQAKALTSYAAIDFSGNRLEGQIPESIGLLKALIAVNISNNAFTGHIPLSMANLENLESLDMSRNQLSGTIPNGLGSISFLAYINVSHNQLTGEIPQGTQITGQSKSSFEGNAGLCGLPLKESCFGTGAPPMYHQKQEDKEEEEEEEEEEEEVLNGRITGAIAGGVAAGAALLFAVPAIALAWWRRKKPQDHFFDVPAEEDPEVHLGQLKRFSLRELQVASDNFSNKNILGRGGFGKVYKGRLADGTLVAVKRLKEERTQGGELQFQTEVEMISMAVHRNLLRLRGFCMTPTERLLVYPYMANGSVASCLRERPESQPPLDWPKRQRIALGSARGLAYLHDHCDPKIIHRDVKAANILLDEEFEAVVGDFGLAKLMDYKDTHVTTAVRGTIGHIAPEYLSTGKSSEKTDVFGYGVMLLELITGQRAFDLARLANDDDVMLLDWVKGLLKEKKLEALVDVDLQGNYKDEEVEQLIQVALLCTQSSPMERPKMSEVVRMLEGDGLAERWEEWQKEEMFRQDFNYPTHHPAVSGWIIGDSTSQIENEYPSGPRSDYKDHDGDYKDHDLDAAAADYKDDDDK", "values": [{"measurement": "responsiveness to PpNLP20 treatment compared to AtRLP23-3×FLAG (total transient increase of fluorescence)", "setting": "Example 3, FIG. 4, 40 minutes, 384-well", "value": "reduced responsiveness"}]}
{"molecule": "AtRLP23-eJM(EEEE/ADQ−)-3×FLAG (protein) SIFTLNFHFTGIVACRPHQIQAFTKFTNEFDTRGCNNSDTFNGVWCDNSTGAVAVLQLRKCLSGTLKSNSSLFGFHQLRYVDLQNNNLTSSSLPSGFGNLKRLEGLFLSSNGFLGQVPSSFSNLTMLAQLDLSYNKLTGSFPLVRGLRKLIVLDLSYNHFSGTLNPNSSLFELHQLRYLNLAFNNFSSSLPSKFGNLHRLENLILSSNGFSGQVPSTISNLTRLTKLYLDQNKLTSSFPLVQNLTNLYELDLSYNKFFGVIPSSLLTLPFLAHLALRENNLAGSVEVSNSSTSSRLEIMYLGSNHFEGQILEPISKLINLKHLDLSFLNTSYPIDLKLFSSLKSLRSLDLSGNSISSASLSSDSYIPLTLEMLTLRHCDINEFPNILKTLKELVYIDISNNRMKGKIPEWLWSLPLLQSVTLGNNYFTGFQGSAEILVNSSVLLLYLDSNNFEGALPDLPLSIKGFGVASNSFTSEIPLSICNRSSLAAIDLSYNNFTGPIPPCLRNLELVYLRNNNLEGSIPDALCDGASLRTLDVSHNRLTGKLPRSFVNCSSLKFLSVINNRIEDTFPFWLKALPNLQVLTLRSNRFYGPISPPHQGPLGFPELRIFEISDNKFTGSLPPNYFVNWKASSRTMNQDGGLYMVYEEKLFDEGGYGYTDALDLQYKGLHMEQAKALTSYAAIDFSGNRLEGQIPESIGLLKALIAVNISNNAFTGHIPLSMANLENLESLDMSRNQLSGTIPNGLGSISFLAYINVSHNQLTGEIPQGTQITGQSKSSFEGNAGLCGLPLKESCFGTGAPPMYHQKQEDKEEEEAEEDEQEVLNGRAVAIGYGSGLLLGLAIAQVIASYKPEWLVKIIGLNKRRKRSDYKDHDGDYKDHDLDAAAADYKDDDDK", "values": [{"measurement": "Ca^2+ increase in response to PpNLP20 treatment (R-GECO1.2 fluorescence)", "value": "Ca^2+ increase"}]}
{"molecule": "AtRLP23-3×FLAG: AtRLP23 (amino acids 1-890) linked to the 3×FLAG peptide; SEQ ID NO: 13 (nucleotide), 14 (protein) (protein, Fusion protein) MSKALLHLHFLSLFLLCCVCHSSIFTLNFHFTGIVACRPHQIQAFTKFTNEFDTRGCNNSDTFNGVWCDNSTGAVAVLQLRKCLSGTLKSNSSLFGFHQLRYVDLQNNNLTSSSLPSGFGNLKRLEGLFLSSNGFLGQVPSSFSNLTMLAQLDLSYNKLTGSFPLVRGLRKLIVLDLSYNHFSGTLNPNSSLFELHQLRYLNLAFNNFSSSLPSKFGNLHRLENLILSSNGFSGQVPSTISNLTRLTKLYLDQNKLTSSFPLVQNLTNLYELDLSYNKFFGVIPSSLLTLPFLAHLALRENNLAGSVEVSNSSTSSRLEIMYLGSNHFEGQILEPISKLINLKHLDLSFLNTSYPIDLKLFSSLKSLRSLDLSGNSISSASLSSDSYIPLTLEMLTLRHCDINEFPNILKTLKELVYIDISNNRMKGKIPEWLWSLPLLQSVTLGNNYFTGFQGSAEILVNSSVLLLYLDSNNFEGALPDLPLSIKGFGVASNSFTSEIPLSICNRSSLAAIDLSYNNFTGPIPPCLRNLELVYLRNNNLEGSIPDALCDGASLRTLDVSHNRLTGKLPRSFVNCSSLKFLSVINNRIEDTFPFWLKALPNLQVLTLRSNRFYGPISPPHQGPLGFPELRIFEISDNKFTGSLPPNYFVNWKASSRTMNQDGGLYMVYEEKLFDEGGYGYTDALDLQYKGLHMEQAKALTSYAAIDFSGNRLEGQIPESIGLLKALIAVNISNNAFTGHIPLSMANLENLESLDMSRNQLSGTIPNGLGSISFLAYINVSHNQLTGEIPQGTQITGQSKSSFEGNAGLCGLPLKESCFGTGAPPMYHQKQEDKEEEEEEEEEEEEVLNGRAVAIGYGSGLLLGLAIAQVIASYKPEWLVKIIGLNKRRKRSDYKDHDGDYKDHDLDAAAADYKDDDDK", "values": [{"measurement": "Ca^2+ increase in response to PpNLP20 treatment (R-GECO1.2 fluorescence)", "value": "significant Ca^2+ increase"}]}
{"molecule": "AtRLP23-eJMAtRLP1-3×FLAG: AtRLP23 with the AtRLP1 eJM domain, 3×FLAG; SEQ ID NO: 49, 50 (protein, Fusion protein) MSKALLHLHFLSLFLLCCVCHSSIFTLNFHFTGIVACRPHQIQAFTKFTNEFDTRGCNNSDTFNGVWCDNSTGAVAVLQLRKCLSGTLKSNSSLFGFHQLRYVDLQNNNLTSSSLPSGFGNLKRLEGLFLSSNGFLGQVPSSFSNLTMLAQLDLSYNKLTGSFPLVRGLRKLIVLDLSYNHFSGTLNPNSSLFELHQLRYLNLAFNNFSSSLPSKFGNLHRLENLILSSNGFSGQVPSTISNLTRLTKLYLDQNKLTSSFPLVQNLTNLYELDLSYNKFFGVIPSSLLTLPFLAHLALRENNLAGSVEVSNSSTSSRLEIMYLGSNHFEGQILEPISKLINLKHLDLSFLNTSYPIDLKLFSSLKSLRSLDLSGNSISSASLSSDSYIPLTLEMLTLRHCDINEFPNILKTLKELVYIDISNNRMKGKIPEWLWSLPLLQSVTLGNNYFTGFQGSAEILVNSSVLLLYLDSNNFEGALPDLPLSIKGFGVASNSFTSEIPLSICNRSSLAAIDLSYNNFTGPIPPCLRNLELVYLRNNNLEGSIPDALCDGASLRTLDVSHNRLTGKLPRSFVNCSSLKFLSVINNRIEDTFPFWLKALPNLQVLTLRSNRFYGPISPPHQGPLGFPELRIFEISDNKFTGSLPPNYFVNWKASSRTMNQDGGLYMVYEEKLFDEGGYGYTDALDLQYKGLHMEQAKALTSYAAIDFSGNRLEGQIPESIGLLKALIAVNISNNAFTGHIPLSMANLENLESLDMSRNQLSGTIPNGLGSISFLAYINVSHNQLTGEIPQGTQITGQSKSSFEGNAGLCGLPLKESCFGTGAPPMYHQKQEDTHAKEEENEEEGNVIDAVAIGYGSGLLLGLAIAQVIASYKPEWLVKIIGLNKRRKRSDYKDHDGDYKDHDLDAAAADYKDDDDK", "values": [{"measurement": "Ca^2+ increase in response to PpNLP20 treatment (R-GECO1.2 fluorescence)", "value": "Ca^2+ increase"}]}
{"molecule": "AtRLP23-eJMVe1-3×FLAG: AtRLP23 with the SlVe1 eJM domain, 3×FLAG; SEQ ID NO: 53, 54 (protein, Fusion protein) MSKALLHLHFLSLFLLCCVCHSSIFTLNFHFTGIVACRPHQIQAFTKFTNEFDTRGCNNSDTFNGVWCDNSTGAVAVLQLRKCLSGTLKSNSSLFGFHQLRYVDLQNNNLTSSSLPSGFGNLKRLEGLFLSSNGFLGQVPSSFSNLTMLAQLDLSYNKLTGSFPLVRGLRKLIVLDLSYNHFSGTLNPNSSLFELHQLRYLNLAFNNFSSSLPSKFGNLHRLENLILSSNGFSGQVPSTISNLTRLTKLYLDQNKLTSSFPLVQNLTNLYELDLSYNKFFGVIPSSLLTLPFLAHLALRENNLAGSVEVSNSSTSSRLEIMYLGSNHFEGQILEPISKLINLKHLDLSFLNTSYPIDLKLFSSLKSLRSLDLSGNSISSASLSSDSYIPLTLEMLTLRHCDINEFPNILKTLKELVYIDISNNRMKGKIPEWLWSLPLLQSVTLGNNYFTGFQGSAEILVNSSVLLLYLDSNNFEGALPDLPLSIKGFGVASNSFTSEIPLSICNRSSLAAIDLSYNNFTGPIPPCLRNLELVYLRNNNLEGSIPDALCDGASLRTLDVSHNRLTGKLPRSFVNCSSLKFLSVINNRIEDTFPFWLKALPNLQVLTLRSNRFYGPISPPHQGPLGFPELRIFEISDNKFTGSLPPNYFVNWKASSRTMNQDGGLYMVYEEKLFDEGGYGYTDALDLQYKGLHMEQAKALTSYAAIDFSGNRLEGQIPESIGLLKALIAVNISNNAFTGHIPLSMANLENLESLDMSRNQLSGTIPNGLGSISFLAYINVSHNQLTGEIPQGTQITGQSKSSFEGNAGLCGLPLKESCFGTGAPPMYHQKQEDESLPPPTPLPDSDDEWEAVAIGYGSGLLLGLAIAQVIASYKPEWLVKIIGLNKRRKRSDYKDHDGDYKDHDLDAAAADYKDDDDK", "values": [{"measurement": "Ca^2+ increase in response to PpNLP20 treatment (R-GECO1.2 fluorescence)", "value": "Ca^2+ increase"}]}
